Source: paper doi:10.1101/625400, “Massively parallel reporter assays combined with cell-type specific eQTL informed multiple melanoma loci and identified a pleiotropic function of HIV-1 restriction gene, MX2, in melanoma promotion”

Target: YY1 full-length recombinant (Active Motif 31332) (UniProt P25490 1-414)
Experiment: EMSA; 100-750 ng YY1, 10 mM Mg2+; EMSA: 10 mM Tris pH 7.5, 50 mM KCl, 1 mM DTT, 10 mM MgCl2, 4 C, 30 min (poly d(I-C) with nuclear extract)
Details: protein: commercial; label: 5' biotin (both strands); blunt

Sequence of YY1 full-length recombinant (Active Motif 31332) (P25490 whole entry): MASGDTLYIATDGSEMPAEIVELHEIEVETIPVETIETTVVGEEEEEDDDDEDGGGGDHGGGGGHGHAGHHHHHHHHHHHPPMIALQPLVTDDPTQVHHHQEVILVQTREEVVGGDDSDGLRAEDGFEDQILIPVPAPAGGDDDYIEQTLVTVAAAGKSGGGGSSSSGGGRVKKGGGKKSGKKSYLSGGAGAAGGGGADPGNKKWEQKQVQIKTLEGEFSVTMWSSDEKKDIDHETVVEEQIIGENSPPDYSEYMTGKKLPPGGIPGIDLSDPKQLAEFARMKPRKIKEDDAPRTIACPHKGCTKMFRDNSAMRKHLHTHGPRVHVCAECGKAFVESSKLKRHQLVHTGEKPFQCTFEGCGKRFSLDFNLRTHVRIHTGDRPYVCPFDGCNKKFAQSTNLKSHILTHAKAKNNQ

B1: rs398206 A allele EMSA probe (dsDNA)
DNA 1: GTCCGTCCCAACATGGCGGGT
DNA 2: ACCCGCCATGTTGGGACGGAC
  binding result: binds
